Measured values from patent US20250277199, “NOVEL CRISPR-CAS NUCLEASES FROM METAGENOMES” (Brain Biotech AG, published 2025).

Molecular target: T1, BMC04 (uncultured bacterium (metagenome))
T1 chain: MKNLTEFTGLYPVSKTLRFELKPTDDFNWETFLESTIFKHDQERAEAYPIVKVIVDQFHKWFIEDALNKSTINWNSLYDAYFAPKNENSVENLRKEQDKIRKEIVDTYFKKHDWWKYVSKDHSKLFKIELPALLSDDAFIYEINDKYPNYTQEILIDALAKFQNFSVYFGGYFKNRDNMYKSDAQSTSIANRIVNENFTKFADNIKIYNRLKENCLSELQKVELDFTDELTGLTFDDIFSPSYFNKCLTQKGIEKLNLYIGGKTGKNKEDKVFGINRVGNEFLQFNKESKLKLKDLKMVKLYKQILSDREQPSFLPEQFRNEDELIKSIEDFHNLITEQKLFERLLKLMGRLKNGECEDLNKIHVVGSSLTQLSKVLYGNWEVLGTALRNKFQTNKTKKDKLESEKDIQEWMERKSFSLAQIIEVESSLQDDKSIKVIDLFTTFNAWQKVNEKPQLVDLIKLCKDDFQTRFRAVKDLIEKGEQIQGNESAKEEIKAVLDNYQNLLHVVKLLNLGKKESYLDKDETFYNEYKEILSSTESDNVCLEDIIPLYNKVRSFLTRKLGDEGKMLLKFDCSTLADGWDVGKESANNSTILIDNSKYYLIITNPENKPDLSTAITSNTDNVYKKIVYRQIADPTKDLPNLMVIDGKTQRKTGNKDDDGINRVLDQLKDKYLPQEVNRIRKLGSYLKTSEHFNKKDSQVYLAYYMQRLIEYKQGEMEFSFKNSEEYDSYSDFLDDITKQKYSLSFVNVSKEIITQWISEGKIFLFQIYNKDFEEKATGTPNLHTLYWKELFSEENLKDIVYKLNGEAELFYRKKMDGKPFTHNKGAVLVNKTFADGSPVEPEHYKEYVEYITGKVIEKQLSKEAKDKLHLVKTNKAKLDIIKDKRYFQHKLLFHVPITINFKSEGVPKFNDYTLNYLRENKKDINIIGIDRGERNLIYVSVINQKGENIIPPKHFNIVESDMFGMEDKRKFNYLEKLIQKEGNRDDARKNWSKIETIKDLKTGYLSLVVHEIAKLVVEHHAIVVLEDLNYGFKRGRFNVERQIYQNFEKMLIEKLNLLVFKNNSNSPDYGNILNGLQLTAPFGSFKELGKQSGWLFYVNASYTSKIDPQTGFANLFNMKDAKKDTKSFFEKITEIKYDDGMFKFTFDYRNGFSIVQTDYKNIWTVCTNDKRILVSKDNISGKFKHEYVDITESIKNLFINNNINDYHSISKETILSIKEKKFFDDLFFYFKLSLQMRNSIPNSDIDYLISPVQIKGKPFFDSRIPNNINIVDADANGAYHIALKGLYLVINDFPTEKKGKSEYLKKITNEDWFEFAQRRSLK
Test: cell_activity; PAM not stated; E. coli depletion, 30 C
Summary of the method: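 E. coli carrying arabinose-induced (0.2%) BMC nuclease, grown at 30° C., made electrocompetent and electroporated with 50-100 ng plasmid carrying gRNA against malQ. Transformants plated on selective M9-glucose agar with kanamycin/ampicillin (± nourseothricin), and growth scored after 48 h at 30° C.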

B1: malQ gRNA (BMC stem-loop + 24 nt spacer) ; malQ protospacer (ssRNA ; dsDNA)
RNA: GAUUUCUACUAUUGUAGAUGUGGCGGUACGUUGAUGCAUCGCG
DNA 1: GTGGCGGTACGTTGATGCATCGCG
DNA 2: CGCGATGCATCAACGTACCGCCAC
- activity: > 99.9 % colony reduction
